# Results taken from publication PMC4769167 (eLife, 2016).
# Positions count from the first letter of the chain named. In names and notes the source's numbering stands.
# B1: D417C ClC-ec1 (cysteine-less C85A/C302A/C347S background, called the "WT background") (natural protein, E. coli)
# chain: MKTDTPSLETPQAARLRRRQLIRQLLERDKTPLAILFMAAVVGTLVGLAAVAFDKGVAWLQNQRMGALVHTADNYPLLLTVAFLASAVLAMFGYFLVRKYAPEAGGSGIPEIEGALEDQRPVRWWRVLPVKFFGGLGTLGGGMVLGREGPTVQIGGNIGRMVLDIFRLKGDEARHTLLATGAAAGLAAAFNAPLAGILFIIEEMRPQFRYTLISIKAVFIGVIMSTIMYRIFNHEVALIDVGKLSDAPLNTLWLYLILGIIFGIFGPIFNKWVLGMQDLLHRVHGGNITKWVLMGGAIGGLAGLLGFVAPATSGGGFNLIPIATAGNFSMGMLVFIFVARVITTLLSFSSGAPGGIFAPMLALGTVLGTAFGMVAVELFPQYHLEAGTFAIAGMGALLAASIRAPLTGIILVLEMTCNYQLILPMIITGLGATLLAQFTGGKPLYSAILARTLAKQEAEQLARSK
# notes: ClC-ec1, prokaryotic CLC Cl-/H+ exchange transporter, homodimer; D417C in the cysteine-less background C85A/C302A/C347S; E. coli is named only in the keywords; also called D417C/WT; source: expressed and purified as in Accardi and Miller, 2004, final step Superdex 200 size exclusion
# B2: D417C/A404L ClC-ec1 (cysteine-less background) (natural protein, E. coli)
# chain: B1 chain with A404L
# notes: ClC-ec1; D417C with A404L in the cysteine-less background C85A/C302A/C347S; source: expressed and purified as in Accardi and Miller, 2004, final step Superdex 200 size exclusion
# B3: D417C/F357A ClC-ec1 (cysteine-less background) (natural protein, E. coli)
# chain: B1 chain with F357A
# notes: ClC-ec1; D417C with the Helix-N mutation F357A in the cysteine-less background C85A/C302A/C347S; also called F357A (Helix N); source: expressed and purified as in Accardi and Miller, 2004, final step Superdex 200 size exclusion
# B4: D417C/E148A ClC-ec1 (cysteine-less background) (natural protein, E. coli)
# chain: B1 chain with E148A
# notes: ClC-ec1; D417C with E148A in the cysteine-less background C85A/C302A/C347S; also called D417C in the E148A mutant background; source: expressed and purified as in Accardi and Miller, 2004, final step Superdex 200 size exclusion
# B5: D417C/L361A ClC-ec1 (cysteine-less background) (natural protein, E. coli)
# chain: B1 chain with L361A
# notes: ClC-ec1; D417C with the Helix-N mutation L361A in the cysteine-less background C85A/C302A/C347S; also called L361A (Helix N); source: expressed and purified as in Accardi and Miller, 2004, final step Superdex 200 size exclusion
# B6: Y419C ClC-ec1 (WT ClC-ec1 background) (natural protein, E. coli)
# chain: B1 chain with A85C, A302C, S347C, C417D, Y419C
# notes: ClC-ec1, prokaryotic CLC Cl-/H+ exchange transporter, homodimer; Y419C in the WT (native cysteines kept) background; source: expressed and purified as in Accardi and Miller, 2004, final step Superdex 200 size exclusion
# Target: the molecule itself
# Test: SEC; Superdex 200 gel filtration, before and after treatment with CuP
row,Protein,stoichiometry N
1,B1,2

# Target: the molecule itself
# Test: cross-linking; inter-subunit disulfide between introduced cysteines, spontaneous (purified without reductant) or induced with copper-phenanthroline (CuP) for 1 h at room temperature, 0.2 mg/mL protein in Buffer A (150 mM NaCl, 10 mM HEPES pH 7.5, 5 mM DM); non-reducing SDS-PAGE, Coomassie, monomer and dimer bands quantified
row,Protein,binding result
1,B2,binds
2,B3,binds
3,B4,binds
4,B5,binds
5,B6,binds
